Test results from patent US7560106B2, “Rationally designed heparinases derived from heparinase I and II and methods of sequencing therewith” (Massachusetts Institute of Technology, priority 1998, dated 2009).
Numbering of substitutions follows the chain as printed. Names may count otherwise. “Also recorded” adds a separate entry of the source.

B1: Y379A: heparinase I CB-2 mutant, tyrosine 379 changed to alanine (protein, UniProt Q05819 22-384, looked up, variant Y379A)
Heparin lyase I: QQKKSGNIPYRVNVQADSAKQKAIIDNKWVAVGINKPYALQYDDKLRFNGKPSYRFELKAEDNSLEGYAAGETKGRTELSYSYATTNDFKKFPPSVYQNAQKLKTVYHYGKGICEQGSSRSYTFSVYIPSSFPDNATTIFAQWHGAPSRTLVATPEGEIKTLSIEEFLALYDRMIFKKNIAHDKVEKKDKDGKITYVAGKPNGWKVEQGGYPTLAFGFSKGYFYIKANSDRQWLTDKADRNNANPENSEVMKPYSSEYKTSTIAYKMPFAQFPKDCWITFDVAIDWTKYGKEANTILKPGKLDVMMTYTKNKKPQKAHIVNQQEILIGRNDDDGYYFKFGIYRVGNSTVPVTYNLSGASETAR
B2: T216A: heparinase I CB-1 mutant, threonine 216 changed to alanine (protein, UniProt Q05819 22-384, looked up, variant T216A)
Heparin lyase I: B1 Heparin lyase I with T195A, A358Y
B3: G213A/T216A: heparinase I CB-1 double mutant (protein, UniProt Q05819 22-384, looked up, variant G213A T216A)
Heparin lyase I: B1 Heparin lyase I with G192A, T195A, A358Y
B4: D210A/D212A: heparinase I CB-1 double mutant (protein, UniProt Q05819 22-384, looked up, variant D210A D212A)
Heparin lyase I: B1 Heparin lyase I with D189A, D191A, A358Y
B5: G213A: heparinase I CB-1 mutant, glycine 213 changed to alanine (protein, UniProt Q05819 22-384, looked up, variant G213A)
Heparin lyase I: B1 Heparin lyase I with G192A, A358Y
B6: T373A: heparinase I CB-2 mutant, threonine 373 changed to alanine (protein, UniProt Q05819 22-384, looked up, variant T373A)
Heparin lyase I: B1 Heparin lyase I with T352A, A358Y
B7: G378A: heparinase I CB-2 mutant, glycine 378 changed to alanine (protein, UniProt Q05819 22-384, looked up, variant G378A)
Heparin lyase I: B1 Heparin lyase I with G357A, A358Y
B8: S377A: heparinase I mutant where serine 377 is mutated to alanine; calcium-independent (protein, UniProt Q05819 22-384, looked up, variant S377A)
Heparin lyase I: B1 Heparin lyase I with S356A, A358Y
B9: T382A: heparinase I CB-2 mutant, threonine 382 changed to alanine (protein, UniProt Q05819 22-384, looked up, variant T382A)
Heparin lyase I: B1 Heparin lyase I with A358Y, T361A
B10: D210A: heparinase I CB-1 mutant, aspartate 210 changed to alanine (protein, UniProt Q05819 22-384, looked up, variant D210A)
Heparin lyase I: B1 Heparin lyase I with D189A, A358Y
B11: E207A/D212A: heparinase I CB-1 double mutant (protein, UniProt Q05819 22-384, looked up, variant E207A D212A)
Heparin lyase I: B1 Heparin lyase I with E186A, D191A, A358Y
B12: E381A/T382A: heparinase I CB-2 double mutant (protein, UniProt Q05819 22-384, looked up, variant E381A T382A)
Heparin lyase I: B1 Heparin lyase I with A358Y, E360A, T361A
B13: D212A: heparinase I CB-1 mutant, aspartate 212 changed to alanine (protein, UniProt Q05819 22-384, looked up, variant D212A)
Heparin lyase I: B1 Heparin lyase I with D191A, A358Y
B14: E207A/D210A: heparinase I CB-1 double mutant (protein, UniProt Q05819 22-384, looked up, variant E207A D210A)
Heparin lyase I: B1 Heparin lyase I with E186A, D189A, A358Y
B15: D212A/T216A: heparinase I CB-1 double mutant (protein, UniProt Q05819 22-384, looked up, variant D212A T216A)
Heparin lyase I: B1 Heparin lyase I with D191A, T195A, A358Y

assay: Heparinase I UV 232 nm activity assay as a function of heparin concentration (Kcat, Km); type: biochemical, porcine; details: not given
Excerpt: Heparinase II Activity Assay. Native heparinase II from Flavobacterium heparinum, was purified as described previously (Godavarti, R., and Sasisekharan, R (1996c) Biochem. Biophys. Res. Comm. 229, 770-777). The UV 232 nm assay to quantify native heparinase II enzymatic activity was similar to that reported for heparinase I (Bernstein, H., Yang, V. C., Cooney, C. L., Langer, R. (1988) Meth. Enzym. 137, 515-29). Briefly, the course of the reaction is monitored by measuring the increase in absorbance at 232 nm as a function of time under saturating substrate concentrations. With heparin as the substrate, the reaction was carried out at a concentration of 4 mg/ml in 50 mM sodium phosphate buffer, pH 7.3. With 2 mg/ml heparan sulfate, the reaction was measured in 50 mM sodium phosphate buffer, pH 6.9 (Sasisekharan, R., Moses, M. A., Nugent, M. A., Cooney, C. L., Langer, R. (1994) Proc. Natl. Acad. Sci., USA 91, 1524-1528). The temperature for all enzymatic activity measurements was kept constant at 35° C.
Heparinase I Activity Assay. The UV 232 nm assay to quantify heparinase I enzymatic activity was similar to that described in Example 1. With heparin as the substrate, the reaction was carried out at a concentration of 4 mg/ml in 100 mM MOPS, 5 mM calcium acetate, pH 7.0. The temperature for all enzymatic activity measurements was kept constant at 30° C. For the inactivation kinetic profiles, activity was measured as outlined above at precise time points.
(§1) Heparinase I Activity Assays: The UV 232 nm assay was used as described in Example 1. When measuring the enzyme activity as a function of heparin concentration, heparin concentrations varied from 0 to 4 mg/ml at a fixed calcium concentration of 5 mM (100 mM MOPS buffer/5 mM calcium acetate, pH 7.0). The data was then fit to an non-linear equation to determine Kcat and Km of heparinases I. Heparinase mutant activity was also investigated as a function of calcium concentration ranging from 0 to 10 mM. […] Activity is expressed as IU-μmol product formed/min using ∈=−3800-M^−1CM^−1.

| Molecule | decrease in Kcat compared to wild-type r-heparinase I |
| --- | --- |
| B1 | about 10 fold |
| B2 | ~2 fold |
| B3 | 5 fold |
| B4 | 4.5 fold |
| B5 | about 3 fold |

same assay, conditions: compared to wild-type r-heparinase I

| Molecule | effect on enzyme activity (kcat), in words |
| --- | --- |
| B6 | no significant decrease in enzyme activity |
| B7 | decreased only by about 1 half |
| B8 | no significant decrease in enzyme activity |
| B9 | decreased only by about 1 half |

same assay, conditions: heparin 0 to 4 mg/ml, 5 mM calcium acetate, 100 mM MOPS, pH 7.0

| Molecule | Kcat [s⁻¹] |
| --- | --- |
| B10 | 74 |
| B6 | 85 |
| B1 | 9 |
| B11 | 58 |
| B7 | 41 |
| B2 | 50 |
| B12 | 10 |
| B3 | 19 |
| B13 | 65 |
| B14 | 65 |
| B8 | 71 |
| B15 | 52 |
| B9 | 65 |
| B4 | 21 |
| B5 | 28 |

same assay, conditions: heparin 0 to 4 mg/ml, 5 mM calcium acetate, pH 7.0

| Molecule | Km [µM] |
| --- | --- |
| B10 | 2.64 |
| B6 | 0.96 |
| B1 | 0.32 |
| B11 | 0.93 |
| B7 | 0.74 |
| B2 | 1.45 |
| B12 | 1.75 |
| B3 | 0.83 |
| B13 | 1.94 |
| B14 | 2.77 |
| B8 | 2.74 |
| B15 | 1.52 |
| B9 | 1.64 |
| B4 | 0.32 |
| B5 | 0.97 |

assay: Heparinase I activity as a function of calcium concentration (K0.5, calcium dependence); type: biochemical; details: not given
Experimental: as §1

| Molecule | dependence of enzyme activity on calcium |
| --- | --- |
| B8 | loss of dependence on calcium; also recorded: calcium-independent |

same assay, conditions: Table 4 second K0.5 column

| Molecule | K0.5 [µM] |
| --- | --- |
| B10 | 310 |
| B6 | 50 |
| B1 | 230 |
| B11 | 710 |
| B7 | 80 |
| B2 | 430 |
| B12 | 180 |
| B3 | 2200 |
| B13 | 370 |
| B14 | 470 |
| B8 | 50 |
| B15 | 320 |
| B9 | 100 |
| B4 | 700 |
| B5 | 740 |

same assay, conditions: calcium concentration at which half of the maximum enzyme activity was observed; calcium 0 to 10 mM; Table 4 first K0.5 column

| Molecule | K0.5 [µM] |
| --- | --- |
| B10 | 310 |
| B6 | 50 |
| B1 | 230 |
| B11 | 710 |
| B7 | 80 |
| B2 | 430 |
| B12 | 180 |
| B3 | 2200 |
| B13 | 370 |
| B14 | 470 |
| B8 | 50 |
| B15 | 320 |
| B9 | 100 |
| B4 | 700 |
| B5 | 740 |

assay: Heparin-POROS affinity chromatography; type: binding; details: not given
Experimental: Heparin-POROS chromatography: About 30-40 μg of -L r-heparinase I and the various mutant enzymes were injected into a heparin POROS (4.6 mm×100) column (PerSeptive BioSystems, Framingham, Mass.) connected to BioCAD system (PerSeptive BioSystems). Proteins were eluted using a linear gradient of […] NaCl in 10 min (10 mM Tris, 1 mM EDTA pH 7.0) and monitored at 210 nm. EDTA was added to chelate any calcium ions that may be present in the buffers.

| elution salt concentration / heparin binding relative to wild-type r-heparinase I, in words | Molecule |
| --- | --- |
| comparable to wild-type r-heparinase I | B6 |
| comparable to wild-type r-heparinase I | B1 |
| comparable to wild-type r-heparinase I | B7 |
| comparable to wild-type r-heparinase I | B8 |
| comparable to wild-type r-heparinase I | B9 |

same assay, conditions: salt concentration at which enzyme elutes from heparin-POROS column; 10 mM Tris, 1 mM EDTA pH 7.0

| Molecule | NaCl [mM] |
| --- | --- |
| B10 | 500 |
| B6 | 480 |
| B1 | 489 |
| B11 | 513 |
| B7 | 489 |
| B2 | 479 |
| B12 | 505 |
| B3 | 498 |
| B13 | 498 |
| B14 | 513 |
| B8 | 486 |
| B15 | 497 |
| B9 | 488 |
| B4 | 515 |
| B5 | 476 |
